Source: patent US20210301349A1, “COMPOSITIONS AND METHODS FOR TREATING A TUMOR SUPPRESSOR DEFICIENT CANCER” (BETH ISRAEL DEACONESS MEDICAL CENTER, INC., priority 2016, published 2021)

What was measured:
prostate cancer = conditions: phase III clinical trial in prostate cancer; cited from earlier work
[1] = test system: whole bone marrow (BM) mouse cells and Gr1+ cells; experiment: 4 day culture of bone marrow and Gr1+ cells in GM-CSF, IL-6 medium plus recombinant chemokine; type: cell-based; conditions: 4 days culture with IL6 and GM-CSF, recombinant chemokine 200 nM
Source text: (§1) Gr1+ cells and monocytes were isolated from the bone marrow (tibias and femurs) of C57BL/6 wild type, 3 months old mice using the MACS Myltenyi Biotec Cell Isolation system according to the manufacturer's instruction. For monocytes isolation the Monocyte Isolation Kit (BM) (Miltenyi 130-100-629) was used, whereas Gr1 positive cells were isolated using the antibody Anti-Gr-1-Biotin, clone RB6-8C5 (Miltenyi 130-101-894). Red blood cells were lysed with the ACK lysis buffer (ThermoFisher Scientific A1049201). Total bone marrow cells and Gr1+ cells were cultured for 4 days. Briefly, 40 ng/ml GM-CSF (PeproTech #315-03) and 40 ng/ml IL-6 (PeproTech #216-16) were added to the control medium RPMI 1640 (ThermoFisher Scientific 11875-093), supplemented with penicillin-streptomycin, 10% FBS, 10 mM HEPES, 20 μM 2-Mercaptoethanol. Either recombinant mouse CXCL5 (BioLegend #573302) or recombinant mouse CXCL17 (BioLegend #585402) was added at the beginning of the experiment (200 nM). For the migration assay 2.5×10^5 MACS sorted cells were resuspended in 100 μL of either RPMI 1640 control medium or organoid complete medium and placed on the upper well of the transwell system (5 μm, Corning #160241). The migration assay with recombinant proteins was performed by adding to the bottom well 600 μL of RMPI1640 control medium supplemented with the indicated amount of either CXCL5 or CXCL17. The migration assay with organoid conditioned medium was performed by adding to the bottom well 600 μL of medium collected over 5 days of culture of prostate organoids with the indicated genotype. The migration of cells was quantified by flow cytometry, 15 seconds acquisition time, using BD LSR II flow cytometer.
For Flow Cytometry, spleen and lymph node single cell suspensions were prepared by mashing the tissue in 2% FBS/PBS. Tumor and control prostate tissue (from anterior lobes) single cell suspension was prepared by mincing the tumor and digestion with Collagenase Type I (Life Technologies #17018029) in 10% DMEM (GIBCO) for 1 hr at 37° C. Cell suspensions were passed through […] cell strainers to obtain single cell suspensions. Blood samples and single cell suspensions were re-suspended in 1-2 ml of ACK red cell lysis buffer (GIBCO) and lysed on ice for 1 minute. Cell suspensions were then washed in 2% FBS/PBS, centrifuged and re-suspended in 0.5-1 ml of 2% FBS/PBS. […] All staining mixtures were analyzed on a BD LSR II flow cytometer (Becton Dickinson). Resulting profiles were further processed and analyzed using the FlowJo 8.7 software.
Microarray analysis and gene set enrichment analysis on mouse tumor tissue were conducted and analyzed as previously described by Palucka, A. K. et al. (Palucka, A. K. et al. Cell 164, 1233-1247 (2016)). […]

[2] = test system: Gr1+ cells isolated from the bone marrow of healthy mice; experiment: Transwell migration assay with recombinant proteins, Gr1+ cells; type: cell-based, mouse; conditions: increasing concentration of recombinant protein in bottom well
Source text: as §1, with “The migration assay with recombinant proteins was performed by adding to the bottom well 600 μL of RMPI1640 control medium supplemented with the indicated amount of either CXCL5 or CXCL17. The migration assay with organoid conditioned medium was performed by adding to the bottom well 600 μL of medium collected over 5 days of culture of prostate organoids with the indicated genotype.” left out

[3] = test system: monocytes isolated from the bone marrow of healthy mice; experiment: Transwell migration assay with recombinant proteins, monocytes; type: cell-based, mouse; conditions: increasing concentration of recombinant protein in bottom well
Source text: as §1, with “The migration assay with recombinant proteins was performed by adding to the bottom well 600 μL of RMPI1640 control medium supplemented with the indicated amount of either CXCL5 or CXCL17. The migration assay with organoid conditioned medium was performed by adding to the bottom well 600 μL of medium collected over 5 days of culture of prostate organoids with the indicated genotype.” left out

Molecule | survival benefit (prostate cancer) | expression of the Ly6C and Ly6G markers and expression profile of the genes tested [1] | expression of the Ly6C and Ly6G markers and expression profile of the genes tested ([1]; listed as recombinant CXCL5) | migration of Gr1+ cells [2] | expression of the Ly6C and Ly6G markers and expression profile of the genes tested ([1]; listed as recombinant CXCL17) | migration of monocytes (Ly6G−/Ly6C^hi cells) [3]
COc1cccc2c1c(O)c(C(=O)N(C)c1ccc(C(F)(F)F)cc1)c(=O)n2C [Tasquinimod] | failed to show a clear survival benefit | – | – | – | – | –
CXCL5: recombinant mouse CXCL5 (BioLegend #573302), chemokine (protein, UniProt P50228 41-132, looked up) C-X-C motif chemokine 5: APSSVIAATELRCVCLTVTPKINPKLIANLEVIPAGPQCPTVEVIAKLKNQKEVCLDPEAPVIKKIIQKILGSDKKKAKRNALAVERTASVQ | – | did not observe any significant difference | did not show significant changes | strongly induced the migration | – | –
CXCL17: recombinant mouse CXCL17 (BioLegend #585402), chemokine (protein, UniProt Q5UW37 23-119, looked up) C-X-C motif chemokine 17: SPNPGVARSHGDQHLAPRRWLLEGGQECECKDWFLQAPKRKATAVLGPPRKQCPCDHVKGREKKNRHQKHHRKSQRPSRACQQFLKRCHLASFALPL | – | did not observe any significant difference | – | – | did not show significant changes | chemoattractants
